Measured values reported in paper PMC10547193.

Key:
[1] = target: CVA10-WT viral particles (coxsackievirus A10 prototype strain Kowalik, mature virion) (coxsackievirus A10 (strain Kowalik))
[2] = target: CVA10 escape mutant N2142D+N3183Y (coxsackievirus A10 strain Kowalik with VP2 N142D and VP3 N183Y) (coxsackievirus A10 (strain Kowalik))
[3] = target: CVA10-N142A viral particles (coxsackievirus A10 strain Kowalik with VP2 N142A) (coxsackievirus A10 (strain Kowalik))

B1: human KRM1-Fc (ectodomain of human KREMEN1 fused to the Fc portion of human IgG1) (Fc fusion)
chain: APSPGLGPECFTANGADYRGTQNWTALQGGKPCLFWNETFQHPYNTLKYPNGEGGLGEHNYCRNPDGDVSPWCYVAEHEDGVYWKYCEIPACQMPGNLGCYKDHGNPPPLTGTSKTSNKLTIQTCISFCRSQRFKFAGMESGYACFCGNNPDYWKYGEAASTECNSVCFGDHTQPCGGDGRIILFDTLVGACGGNYSAMSSVVYSPDFPDTYATGRVCYWTIRVPGASHIHFSFPLFDIRDSADMVELLDGYTHRVLARFHGRSRPPLSFNVSLDFVILYFFSDRINQAQGFAVLYQAVKEELPQERPAVNQTVAEVITEQANLSVSAARSSKVLYVITTSPSHPPQTVPG
modifications: biotin (EZ-Link Sulfo-NHS-LC-LC-Biotin) in the ELISA
- neutralization concentration (100% protection from CPE) of KRM1-Fc against CVA10 prototype strain Kowalik in RD cells [1]: 12.5 nM
- change of the neutralization concentration of KRM1-Fc against the mutant relative to CVA10-WT (standard neutralization assay, RD cells) [2]: > 128 times
- resistance to neutralization by KRM1-Fc relative to rescued CVA10-WT (neutralization assay, RD cells) [3]: 64 fold
